Measured values from paper PMC11402289, “Structural basis for RNA recognition by the C-terminal RRM domain of human RBM45”.

T1: RBM45 RRM3 (Homo sapiens, UniProt Q8IUH3 370-476)
T1 sequence: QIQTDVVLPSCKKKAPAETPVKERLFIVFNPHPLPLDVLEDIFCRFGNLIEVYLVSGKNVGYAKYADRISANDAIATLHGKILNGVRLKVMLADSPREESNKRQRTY


These binders were tested against T1, RBM45 RRM3 (assay: fluorescence polarization; FP: 100 nM FAM-RNA/ssDNA, 10 mM Tris-HCl pH 7.5, 200 mM NaCl, 1 mM DTT, 1 mM EDTA, 5% glycerol, 25 °C, 30 min). Details: protein: recombinant; tags: C-terminal His-tag; label: 5'-FAM.

Binder | Kd
GGACGG (ssRNA) [GGACGG RNA] | 2.34 ± 0.38 µM
UUUUUU (ssRNA) [polyU 6-mer RNA] | 199 ± 114 µM
GUACGG (ssRNA) | 9.31 ± 1.93 µM
GGCCGG (ssRNA) | 71 ± 16.1 µM
GGGCGG (ssRNA) | 59.3 ± 21.2 µM
GGUCGG (ssRNA) | 71.6 ± 16.9 µM
GGAAGG (ssRNA) | 91.6 ± 17.6 µM
GGAGGG (ssRNA) | 61.5 ± 45.7 µM
GGAUGG (ssRNA) | 63.6 ± 12.1 µM
GGACAG (ssRNA) | 28.1 ± 6.62 µM
GGACUG (ssRNA) | 15.3 ± 2.1 µM
GGACGG (ssDNA) [GGACGG ssDNA] | 8.77 ± 0.61 µM
GGACGA (ssRNA) | 1.16 ± 0.27 µM
GGACGC (ssRNA) | 1.08 ± 0.21 µM
GGACGU (ssRNA) | 1.21 ± 0.26 µM
GGACGG (ssRNA, m6A at position 3) [GG(m6A)CGG RNA] | 4.62 ± 0.55 µM
AGACGG (ssRNA) | 3.11 ± 0.48 µM
CGACGG (ssRNA) | 1.99 ± 0.35 µM
UGACGG (ssRNA) | 2.13 ± 0.37 µM
GAACGG (ssRNA) | 10.2 ± 1.97 µM
GCACGG (ssRNA) | 8.88 ± 2.32 µM

These binders were tested against T1, RBM45 RRM3 (assay: fluorescence polarization; m6A comparison experiment; FP: 100 nM FAM-RNA/ssDNA, 10 mM Tris-HCl pH 7.5, 200 mM NaCl, 1 mM DTT, 1 mM EDTA, 5% glycerol, 25 °C, 30 min). Details: protein: recombinant; tags: C-terminal His-tag; label: 5'-FAM.

Binder | Kd
GGACGG (ssRNA) [GGACGG RNA] | 3.17 ± 0.3 µM

What follows are binders tested against T1, RBM45 RRM3 (assay: X-ray crystallography; 1.65 A; 0.1 M sodium succinate pH 5.3, 8% PEG 2000; FP: 100 nM FAM-RNA/ssDNA, 10 mM Tris-HCl pH 7.5, 200 mM NaCl, 1 mM DTT, 1 mM EDTA, 5% glycerol, 25 °C, 30 min). Details: protein: recombinant; tags: C-terminal His-tag.

Binder | binding result
GACGCAG (ssDNA) [GACGCAG ssDNA] | binds

Each binder was assayed against T1, RBM45 RRM3 (assay: fluorescence polarization; also printed as 33.6; FP: 100 nM FAM-RNA/ssDNA, 10 mM Tris-HCl pH 7.5, 200 mM NaCl, 1 mM DTT, 1 mM EDTA, 5% glycerol, 25 °C, 30 min). Details: protein: recombinant; tags: C-terminal His-tag; label: 5'-FAM.

Binder | Kd
GGACCG (ssRNA) | 32.6 ± 6.22 µM
